Assay results taken from patent publication US20250163160A1 (Amgen, published 2025).

Key:
[1] = molecular target: T1, human FGF21 receptor (FGF21R): full length human FGFR1c and full length human β-Klotho co-expressed on cells (human, UniProt P11362 22-822; Q86Z14 53-1044); experiment: cell-based or functional assay
[2] = molecular target: T1, human FGF21 receptor (FGF21R): full …; experiment: cell-based or functional assay; remark: listed apart in the source

Binder	EC50 (read off the curve); luciferase reporter (RLU) in AM-1/D FGFR1c+β-Klotho Luc cells, FGF21 alone (0 nM 39F11) [1] [nM]	EC50 (nM), Erk-phosphorylation, human adipocyte assay [2] [nM]
Fibroblast Growth Factor 21 (FGF21), human (ligand, Alexa 647-NHS label (Example 1); biotin (Example 8, second Biacore analysis)) HPIPDSSPLLQFGGQVRQRYLYTDDAQQTEAHLEIREDGTVGGAADQSPESLLQLKALKPGVIQILGVKTSRFLCQRPDGALYGSLHFDPEACSFRELLLEDGYNVYQSEAHGLPLHLPGNKSPHRDPAPRGPARFLPLPGLPPAPPEPPGILAPQPPDVGSSDPLSMVGPSQGRSPSYAS	1 to 2	–
16H7 variant, heavy chain H3, light chain D49A (antibody, human IgG2, lambda, V domains shown) VH: not shown VL: SYVLTQPPSVSVAPGQTARITCGGNNIGSESVHWYQQKPGQAPVLVVYADSDRPSGIPERFSGSNSGNTATLTISRVEAGDEADYYCQVWDGNSDHVVFGGGTKLTVLG	–	0.63
16H7 variant, heavy chain H3, light chain D91A (antibody, human IgG2, lambda, V domains shown) VH: not shown VL: SYVLTQPPSVSVAPGQTARITCGGNNIGSESVHWYQQKPGQAPVLVVYDDSDRPSGIPERFSGSNSGNTATLTISRVEAGDEADYYCQVWAGNSDHVVFGGGTKLTVLG	–	1.3
